Patent publication US20190106487A1 (Sanofi, published 2019)

T1: mIL1RAcP-Fc (murine, UniProt Q61730 21-359)
T1 construct: also called P013_04; P013-04
T1 sequence (looked up): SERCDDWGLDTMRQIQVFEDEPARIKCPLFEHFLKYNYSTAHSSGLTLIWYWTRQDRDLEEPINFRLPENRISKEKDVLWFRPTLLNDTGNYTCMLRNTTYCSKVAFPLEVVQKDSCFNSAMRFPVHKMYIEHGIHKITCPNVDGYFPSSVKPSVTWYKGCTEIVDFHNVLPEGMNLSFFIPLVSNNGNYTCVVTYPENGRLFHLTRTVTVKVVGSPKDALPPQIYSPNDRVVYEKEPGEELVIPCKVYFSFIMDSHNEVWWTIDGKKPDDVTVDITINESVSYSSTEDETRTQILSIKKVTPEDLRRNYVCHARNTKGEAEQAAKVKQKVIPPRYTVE

T2: rhIL-1RAcP/Fc Chimera (human, UniProt Q9NPH3 21-359)
T2 construct: also called P013_03; P013-03
T2 sequence (looked up): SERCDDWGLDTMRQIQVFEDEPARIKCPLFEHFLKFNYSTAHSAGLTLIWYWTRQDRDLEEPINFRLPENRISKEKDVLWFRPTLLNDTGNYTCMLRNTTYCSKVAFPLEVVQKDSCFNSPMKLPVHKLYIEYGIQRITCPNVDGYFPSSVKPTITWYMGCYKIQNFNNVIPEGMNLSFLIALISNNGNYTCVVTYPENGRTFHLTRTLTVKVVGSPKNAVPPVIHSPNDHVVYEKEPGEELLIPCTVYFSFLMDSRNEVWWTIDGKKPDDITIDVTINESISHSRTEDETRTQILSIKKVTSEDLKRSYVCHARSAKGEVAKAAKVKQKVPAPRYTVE

T3: human IL-1RAcP on 293T/17-FR cells (human, UniProt Q9NPH3 21-570)
T3 sequence (looked up): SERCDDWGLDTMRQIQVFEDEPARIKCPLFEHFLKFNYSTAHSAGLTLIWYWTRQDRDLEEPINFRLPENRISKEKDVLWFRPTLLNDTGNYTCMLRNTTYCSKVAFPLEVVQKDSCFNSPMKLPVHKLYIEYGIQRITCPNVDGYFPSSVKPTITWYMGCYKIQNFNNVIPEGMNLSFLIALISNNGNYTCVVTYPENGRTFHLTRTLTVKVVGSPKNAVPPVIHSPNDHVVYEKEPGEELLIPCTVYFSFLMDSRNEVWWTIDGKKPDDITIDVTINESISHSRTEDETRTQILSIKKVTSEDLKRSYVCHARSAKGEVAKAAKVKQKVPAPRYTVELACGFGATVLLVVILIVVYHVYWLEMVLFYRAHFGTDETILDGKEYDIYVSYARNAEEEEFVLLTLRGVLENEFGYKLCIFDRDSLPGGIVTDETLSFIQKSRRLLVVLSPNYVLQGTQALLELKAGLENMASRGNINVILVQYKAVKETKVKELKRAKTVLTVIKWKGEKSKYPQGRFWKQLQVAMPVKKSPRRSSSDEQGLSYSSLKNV


Legend:
[1] = target: T1, mIL1RAcP-Fc; test: ELISA, primary supernatant, coated mu-IL-1RAcP-Fc
[2] = target: T2, rhIL-1RAcP/Fc Chimera; test: ELISA, recombinant purified mAb
[3] = target: T2, rhIL-1RAcP/Fc Chimera; test: ELISA, primary supernatant, coated hu-IL-1RAcP-Fc
Summary of the method: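 Plates coated with 0.5 μg/mL Fc-tagged human IL-1RAcP; rabbit B-cell supernatant antibodies detected by peroxidase anti-rabbit IgG Fab2 and TMB, absorbance 450/620 nm. Parallel IL12Rβ1-Fc coating served as counterscreen to exclude tag binders.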

[4] = target: T3, human IL-1RAcP on 293T/17-FR cells; test: cell-based or functional assay

Binder | mu-IL1RaP ELISA (OD) [1] | EC50 [2] | hu-IL1RaP ELISA (OD) [3] | functional reporter gene assay (% inhibition), 0.04 µg/mL mAb [4] | functional reporter gene assay (% inhibition), 0.2 µg/mL mAb [4] | functional reporter gene assay (% inhibition), 1 µg/mL mAb [4] | functional reporter gene assay (% inhibition), 5 µg/mL mAb [4] | primary supernatant functional assay (% inh.), NF-kB luciferase reporter [4]
P013.S.01.B.H05 (antibody, V domains shown, rabbit monoclonal antibody; also called P013.A.00109.F08) VH: LEQSGGGAEGGLVKPGGSLELCCKASGFSLSNSYWICWVRQAPGKGLEWIGCIYVGSSGSTYYASWVNGRFTLSRDIDQSTGCLQLNSLTAADTAIYYCARDGATSTSGHLFELWGQGTLVTVSS VL: ALVMTQTPSPVSAAVGGTVTINCQASEDIYSNLAWFQQKPGQPPKLLIYRASTLASGVPSRFSGSGSGTEFTLTISGVQSDDAATYYCLGIYTYISADGSLYNAFGGGTEVVVK | 0.4 OD | 0.485 µg/mL | 3.3 OD | 20% | 47% | 88% | 90% | 95%
P013.S.01.B.H06 (antibody, V domains shown, rabbit monoclonal antibody; also called P013.A.00086.B03) VH: LEQSGGGGEGGLVKPGGSLELCCKASGFSLSSSYWICWVRQAPGKGLEWIGCIYVGSSGSTYYASWVSGRFTLSRDIDQSTGCLQLNSLTAADTAMYYCARDIYGSTNGYDLWGQGTLVTVSS VL: ALVMTQTPSPVSAAVGGTVTINCQASEDIYSNLAWFQQKPGQPPKLLIYQASKLASGVPSRFSGSGSGTEFTLTISGLQSDDVATYYCLGVGTYISGDGSLDNAFGGGTEVVVK | 0 OD | 0.064 µg/mL | 3.6 OD | 18% | 47% | 88% | 96% | 91%
P013.S.01.B.G04 (antibody, V domains shown, rabbit monoclonal antibody; also called P013.A.00013.G06) VH: QSVEESGGRLVTPGTPLTLTCTVSGFSLSVYAMGWFRQAPGKGLEWIGDIYIASDGTWYANWAKGRFTISKTSTTVDLKITSPTTEDTATYFCAREIDAGYVGYGFNLWGQGTLVTVSS VL: AQALTQTPSPVSAAVGGTVTINCQSSQSVYSDYLGWYQQKPGQPPKLLIYWASKLETGVPSRFKGSGSGTQFTLTISGVQSDDAATYYCQATYYGSGWYRAFGGGTEVVVK | 0 OD | 0.255 µg/mL | 3.4 OD | 15% | 51% | 84% | 95% | 99%
P013.S.01.B.A06 (antibody, V domains shown, rabbit monoclonal antibody; also called P013.A.00133.B12) VH: QSLEESGGRLVTPGTPLTLSCKVSGFSLSSYDMSWVRQTPGKGLEWIGTIYIGGTTAYASWPKGRFTISKTSTTVDLKITSPTKEDTATYFCARLQGANYYNSLALWGQGTLVTVSS VL: DVVMTQTPASVSEPVGGTVTIKCQASQSIYSFLSWYQQKPGQPPKLLIYAASDLESGVPSRFSGSGYGTEFTLTISDLESADAATYYCQCNYIIDYGAFGGGTEVVVK | 0 OD | 0.027 µg/mL | 3.5 OD | 14% | 85% | 99% | 100% | 96%
P013.S.01.B.G03 (antibody, V domains shown, rabbit monoclonal antibody; also called P013.A.00030.C03) VH: QEQLVESGGGLVQPEGSLTLTCKASGFDFSSNYYMCWVRQAPGKGLELIACIYTNSGNTWSASWAKGRFTISKTSSTTVTLQMTSLTAADTATYFCARDLNYPDTSNLWGQGTLVTVSS VL: DIVMTQTPASVEAAVGGTVTIKCQASQSIGYYLAWYQQKPGQPPKLLISRASTLASGVPSRFKGSGSGTQFTLTISDLESADVATYYCQSYYNSDSDAFGGGTEVVVK | 0 OD | 0.144 µg/mL | 3.2 OD | 38% | 51% | 82% | 92% | 89%
